Square brackets hold non-standard residues; d marks the D form. Ends that are not written are not given here. * marks the point of attachment. Biotin = O=C1N[C@H]2[C@H](CS[C@H]2CCCCC(=O)*)N1; Lys(Me2) = CN(C)CCCC[C@H](N)C(=O)O
Biological target: T1, MBP-53BP1-Tudor protein (residues 1484-1603) (UniProt Q12888 1484-1603)
T1 construct: range 1484-1603; also called MBP-Tudor fusion of 53BP1; not shown: MBP fusion partner
Assay: pulldown competition on MBP-53BP1-Tudor; competitor GST-UbvG08; immunoblot

T1 sequence (Q12888 1484-1603): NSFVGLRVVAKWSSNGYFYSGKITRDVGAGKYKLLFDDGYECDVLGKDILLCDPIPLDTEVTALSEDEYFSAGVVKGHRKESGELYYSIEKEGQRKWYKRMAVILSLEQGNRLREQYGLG

B1: biotin-labeled peptide derived from histone H4K20me2 (peptide)
peptide: {Biotin-Mini‑PEG}-YGKGGAKRHR[Lys(Me2)]VLRD
notes: Synthetic peptide (BioBasic Canada Inc.); also called H4K20me2 peptide
In the case of B1, the IC50 is reported as 100 to 300 µM.
